# B1: Ltv1-Flag (natural protein, S. cerevisiae, UniProt P34078 1-463, looked up)
# chain: MSKKFSSKNSQRYVVVHRPHDDPSFYDTDASAHVLVPVSNPNKTSPEADLRKKDVSSTKPKGRRAHVGEAALYGINFDDSEYDYTQHLKPIGLDPENSIFIASKGNEQKVEKKNIEDLFIEPKYRRDEIEKDDALPVFQRGMAKPEYLLHQQDTTDEIRGFKPDMNPALREVLEALEDEAYVVNDDVVVEDISKKTQLQGDNYGEEEKEDDIFAQLLGSGEAKDEDEFEDEFDEWDIDNVENFEDENYVKEMAQFDNIENLEDLENIDYQADVRRFQKDNSILEKHNSDDEFSNAGLDSVNPSEEEDVLGELPSIQDKSKTGKKKRKSRQKKGAMSDVSGFSMSSSAIARTETMTVLDDQYDQIINGYENYEEELEEDEEQNYQPFDMSAERSDFESMLDDFLDNYELESGGRKLAKKDKEIERLKEAADEVSKGKLSQRRNRERQEKKKLEKVTNTLSSLKF
# notes: Ltv1, S. cerevisiae; expressed from pET15b; source: E. coli, purified (anti-Flag agarose); also co-expressed in E. coli with His6-Rps20 (in lysate) and purified in complex with His6-Rps3; not shown: Flag, C-terminal, kept
# B2: Yar1 of the purified His6-Rps3/Yar1 complex (natural protein, S. cerevisiae, UniProt P46683 1-200, looked up)
# chain: MGLHSEPLDQEDQDTIILDARAGDLDSLKDIFTTLVSPELLSTCKESESDSTALHMAAANGHIETVRYILETVSRANSAEDLKAFVNEVNKTGNTALHWASLNGKLDVVKLLCDEYEADPFIRNKFGHDAIFEAENSGKEEVETYFLKKYDVEPEDDEEDTQTEGKNSVQITKGTEIEQVTKEATEALREETEKLNINKD
# notes: Yar1, S. cerevisiae; No tag is named for Yar1 in this complex; source: E. coli BL21 (DE3) Rosetta Star, purified in complex with His6-Rps3 (Ni-NTA agarose)
# B3: full-length Yar1 (Yar1-FL), SAXS sample (natural protein, S. cerevisiae, UniProt P46683 1-200, looked up)
# chain: B2 chain
# notes: Yar1, ankyrin-repeat protein, S. cerevisiae, full-length; modelled as Yar1 (1-214 including tag; 14 N-terminal residues from the His-tag); not shown: His-tag, N-terminal, kept
# B4: Flag-Yar1 (natural protein, S. cerevisiae, UniProt P46683 1-200, looked up)
# chain: B2 chain
# notes: Yar1, S. cerevisiae; expressed from pETDuet-1; source: E. coli, purified (anti-Flag agarose); not shown: Flag, N-terminal, kept
# B5: full-length Rps3 (ribosomal protein S3), SAXS sample (natural protein, S. cerevisiae, UniProt P05750 1-240, looked up)
# chain: MVALISKKRKLVADGVFYAELNEFFTRELAEEGYSGVEVRVTPTKTEVIIRATRTQDVLGENGRRINELTLLVQKRFKYAPGTIVLYAERVQDRGLSAVAQAESMKFKLLNGLAIRRAAYGVVRYVMESGAKGCEVVVSGKLRAARAKAMKFADGFLIHSGQPVNDFIDTATRHVLMRQGVLGIKVKIMRDPAKSRTGPKALPDAVTIIEPKEEEPILAPSVKDYRPAEETEAQAEPVEA
# notes: Rps3, S. cerevisiae, full-length; modelled as Rps3 (1-249 including tag); How the SAXS samples were produced is not described; the methods describe His6-tagged proteins from E. coli BL21 (DE3) Rosetta Star in general; also called r-protein S3
# B6: Rps3 N-domain (1-95) (domain or fragment, S. cerevisiae, UniProt P05750 1-95, looked up)
# chain: MVALISKKRKLVADGVFYAELNEFFTRELAEEGYSGVEVRVTPTKTEVIIRATRTQDVLGENGRRINELTLLVQKRFKYAPGTIVLYAERVQDRG
# notes: Rps3, S. cerevisiae, N-domain, residues 1-95
# What was measured:
# [1] = biological target: T1, Enp1-Flag-TEV-ProteinA (Enp1-FPA) (S. cerevisiae, UniProt P38333 1-483); experiment: pull-down; in vitro competition: purified His6-Rps3/Yar1 complex immobilized on Ni-NTA agarose, incubated with buffer or an ∼6-fold molar excess (over Rps3) of purified Ltv1-Flag and/or Enp1-FPA; supernatants and eluates by Coomassie or western blot; details: both partners purified
# T1 construct: Enp1, S. cerevisiae; A TEV site lies between Flag and Protein A; expressed from pET15b; source: E. coli, purified (anti-Flag agarose); not shown: Flag, C-terminal, kept; Protein A, C-terminal, kept
# T1 sequence (looked up): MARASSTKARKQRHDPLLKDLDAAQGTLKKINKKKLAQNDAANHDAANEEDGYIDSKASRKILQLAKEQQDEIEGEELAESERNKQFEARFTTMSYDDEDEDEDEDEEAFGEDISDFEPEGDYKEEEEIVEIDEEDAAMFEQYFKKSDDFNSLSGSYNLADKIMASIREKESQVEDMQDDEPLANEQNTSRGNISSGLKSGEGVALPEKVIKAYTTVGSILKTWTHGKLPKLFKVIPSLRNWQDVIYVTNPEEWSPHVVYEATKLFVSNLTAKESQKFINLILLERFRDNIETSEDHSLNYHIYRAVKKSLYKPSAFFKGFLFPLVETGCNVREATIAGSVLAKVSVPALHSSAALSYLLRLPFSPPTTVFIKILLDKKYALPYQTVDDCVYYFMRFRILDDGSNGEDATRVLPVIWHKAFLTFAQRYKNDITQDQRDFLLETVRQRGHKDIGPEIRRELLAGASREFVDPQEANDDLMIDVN
# His6-Rps3 [2] = biological target: T2, His6-Rps3 (S. cerevisiae, UniProt P05750 1-240); experiment: as above; details: both partners purified
# T2 construct: Rps3, S. cerevisiae; expressed from pETDuet-1; source: E. coli BL21 (DE3) Rosetta Star, purified (Ni-NTA agarose) in complex with Yar1 or with Ltv1-Flag; not shown: His6, N-terminal, kept
# T2 sequence (looked up): B5 chain
# [3] = biological target: B5; experiment: SAXS; small-angle X-ray scattering in solution, direct injection or size exclusion separation before data collection; Tris-HCl 50 mM and NaCl 200 mM, pH 7.5; Rps3 constructs measured in complex with Yar1 constructs; details: both partners purified
# His6-Rps3 [4] = biological target: T2, His6-Rps3; experiment: pull-down; in vitro competition: purified His6-Rps3/Ltv1-Flag complex immobilized on Ni-NTA agarose, incubated with buffer or an ∼1.5-fold or 6-fold molar excess of purified Flag-Yar1; eluates and supernatants by Coomassie or western blot; details: both partners purified
# [5] = biological target: the molecule itself; experiment: SAXS; small-angle X-ray scattering in solution, direct injection or size exclusion separation before data collection; Tris-HCl 50 mM and NaCl 200 mM, pH 7.5; Rps3 constructs measured in complex with Yar1 constructs
# Yar1 core (8-153) = biological target: T3, Yar1 core (8-153) (S. cerevisiae, UniProt P46683 8-153); experiment: as above; details: both partners purified
# T3 construct: Yar1, S. cerevisiae, structural core lacking the N- and C-terminal extensions, residues 8-153; also called Yar1 structural core; Yar1(8-153)
# T3 sequence (looked up): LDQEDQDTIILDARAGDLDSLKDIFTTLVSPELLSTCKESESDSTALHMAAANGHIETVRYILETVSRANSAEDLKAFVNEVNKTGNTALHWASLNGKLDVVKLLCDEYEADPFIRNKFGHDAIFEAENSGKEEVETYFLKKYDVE
# [6] = biological target: B3; experiment: as above; details: both partners purified
binder,measurement,setting,value
B1,binding result,[1],binds
B2,binding result,His6-Rps3 [2],binds
B3,binding result,[3],binds
B4,binding result,His6-Rps3 [4],binds
B5,stoichiometry N,[5],2
B6,binding result,Yar1 core (8-153),binds
same,binding result,[6],binds
